The target in assay [1] is SARS-COV-2 Wuhan WT Spike_del18 on VSV-delG pseudotyped particles (SARS-COV-2, UniProt P0DTC2 14-1255). Description: cell-based or functional assay.
The target of assay [2] is T1, SARS-COV-2 RBD displayed on the surface of Saccharomyces cerevisiae cells (SARS-COV-2, UniProt P0DTC2 331-531). Description: yeast cell ELISA (FIG. 27).
For assay [3], the target named is monomeric human Fc-fused SARS-COV-2_RBD-SD1 (SARS-COV-2, UniProt P0DTC2 319-591).
The target of assay [4] is T1, SARS-COV-2 RBD displayed on the surface …. The assay is described as follows: flow cytometry, yeast-displayed RBD. On the technique in general: In flow cytometry, cells or beads pass a laser one at a time.

Positions count from the first letter of the chain named.

B1: VHH72_h1_S56A (VHH)
VHH: EVQLVESGGGLVQPGGSLRLSCAASGRTFSEYAMGWFRQAPGKEREFVATISWSGGATYYTDSVKGRFTISRDNAKNTVYLQMNSLRPEDTAVYYCAAAGLGTVVSEWDYDYDYWGQGTLVTVSS
Take B1: in assay [1], the “IC50 Mean VSV-dG-spike SARS-COV-2” value was found to be 1.14 µg/mL.

B2: KiH19 = VHH117/VHH83-10GS-KiH (bispecific antibody, V domains shown)
V domain 1: DVQLQESGGGLVQPGGSLRLSCAASGKAVSISDMGWYRQPPGKQRELVATITKTGSTNYADSAQGRFTISRDNTKSAVYLEMKSLKPEDTAVYYCNAWLPYGMGPDYYGMELWGKGTQVTVSS
V domain 2: DVQLQESGGGLVQPGDSLRLSCVLSGGVFTSYAMGWFRQAPGKEREFLAAITFNSDATYYADSVKGRFTISRDNAKNTAYLQMNSLKPEDTAVYSCAAGGNHYNPQYYHDYDKYDHWGQGTQVTVSS
For B2, the binding result in assay [2] was “binds”.

B3: VHH3.117 (VHH)
VHH: B2 V domain 1 with D1Q
Consider B3, for which the dissociation constant Kd – broadly, the concentration at which binding is half-saturated – in assay [3] is 0.445 nM.

B4: VHH3.89 (VHH)
VHH: QVQLQESGGGLVQPGGSLRLSCAASGFTLDYYAIGWFREVPGKEREGLSRIDSSDGSTYYADSVKGRFTISRDNTKNIVYLQMNNLKPEDTAVYYCATDPIIQGRNWYWTGWGQGTQVTVSS
B4: the binding result in assay [4] was “binds”.

Values taken from US20240228596A1 (VIB VZW, published 2024).
